Test: soluble fraction after stress (log2 fold change); higher = more stays soluble; pooled small domains, quantitative proteomics
Settings: stress: 50 degC
How it was run: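 After stress at 50°C, the amount of each protein still soluble was measured. This was done on pooled custom libraries of small protein domains, using high-throughput quantitative proteomics. The figure given is a base-two log fold change and stands for aggregation propensity, with higher values meaning more protein stays in solution.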

Sequence	soluble fraction (log2)
HMFQEGLVAPPAYTRPESFRGWEVPEILRSGNFPAIAKWQHEESLRLTRERRPAMLEAYERRT	0.121
HMKIQEVDYSTFLNMLNEKSIAQVEIQDNQIAFNSNQEGNKQIYVTGRIEEDTELVNRLQAAGVQFSRV	0.079
HMQQPVVVQQNQTVRVVTGGPGFQVANEGRALNNGLAGQVVQVRLGNGQIISGIARAGGIVEIL	0.0705
HMDTNTIIGLRIKALRTEKKYTLKYLSENSGLSIGFLSQLERGMTSVAIDSLDKISKVLDVELSSFFN	-2.93
HMDFGMPEELQKKLDKMPALKAAFEALTPGRQRGYIFYFSQPKQSKTRELRIEKSIEQIMNGKGLND	-0.115
HMTIGLLISKARTNSGLTQAELATRAGTSQAAIARYESDRVSPSVSTLERVLRAAGEELVISSS	-0.0977
HMEDGEVTVPDLRGLTIKEAGTILEKLGLHLSPVGTGLAVRQDVAPGSKVARDTTITVEFEPPDIQVLR	0.103
HMTEPKILTAEESQRLDLILVQQWPELGRRALRELVQQGGVRINGELALKAGQYVQAGERVEVAVP	0.0571
HMNQTTYTVLYSGMDPADTGKVLTALNEMGVDARTQGEDTVLVPADRADEIRLELAAQGYPTS	0.0864
HMAIELIDLIKNPETAPFSKLKYLKWMPEAEVTGFFNNLFQLNVTARETGDWSTVDKFLEDEGDRIAAQVA	-0.138
HMRESPYRRVAKFLLLIGTAEAAKIVSRLDQDQVEKVMLELSGIRSVPRDEATVILAEFESLLQQAR	-1.47
HMKNNITFSEFLHEVDNGRVIKVNIQGNNITGILADGKSFNTYTPNDPSLIEKLTSKGVSISATPI	0.0489
HMISKRFQVDEENSNNRVDIFLANNLDSISRGIVQQLILDGKVLVNGETVKRNHLLKTNDEVDISFEI	0.298
HMINGTITFYDDTTLKGELSSLDTKYLFIIPNGLVMPEKIAVSDIEYFNLDNGITLIQDGISKQTY	-1.25
HMINDKLQHLFSLFPAMDKELKRKGITRQILWVEYKKQYPLGFGRSQFNSYFAAWKAQVSPS	-1.52
HMTHEIKIKSHSLFASEGTKYQWYLNNIKINDATSQELEITSPGIYKLEMTNFDGDVIEKQIIVGLTNS	-2.94
HMGTYTSALDGIKGLGKKRKMLLLNTYKSIDVLKSVPLTELSQLIPREVAEALLTKLNRVDD	-0.118
HMKTLDATQRLKLNGEGIIVFNFGKYVDQPVVEIFKKERGYFAWMMSKDFSQQVKNIITKIHNEEILGK	-2.76
HMSSLKKISIDELSPGMYVHSIVEQKGSVKIKSQGKVLKQAVVDALRKRGVKTLLIDLSKQFNPETGEP	-0.0124
HMLDSDARRRGLIEYLSLNGYATMRQLAGEFDVSINTIQRDITYLARYYPLETAYGRYGGGVYFEQNWQ	-1.56
HMSSDEEQLATLTRLLQKQEQIIQTLGPRNPMVSLQQYANTITKVIEMAGFKDTSQFINSQIP	-0.0471
HMTGDIGAEAAKAAALAHAGVTESQTAKMKVDRDWDDGRLEYDVEFDVGRTEYEYTIDGVTGAVLEYEQDI	0.0136
HMTENIPPVKIEEMRQKWQDIVLLHGVTSGRKIKSGQATYIWLYRNDQNWLLTFNSRHLSQPQV	0.145

Sequence	soluble fraction (log2)
HMVKNLRKLREELGLTQQRLAELTGISKSRIYSYESLDREPDIAGLITLADFFSVSIDYLVGK	-1.78
HMRSEILNLLREKSPQPVSGQDLANHFGITRTAVWKHIQSLKKMGYGIEAYTKKGYVLVSVPN	-0.0638
HMDSKPNDLLFVYVSQLIRSLTLNSSKKDSELADELEVSISQIRIWLKKLINEQLIVKESKPVKYRWKG	-2.95
HMKFTPPTLEQIKNEMLLKTDEYNADIQSDRFFTYYDSNGWMVGKNKMKKFLVSLVAVFAATSA	-0.446
HMSKRDDLLDQASEWLAKLDRDLTVVEERELKAWLGESAAHRETFIQMAKLWDKMESLSRLTDL	-0.397
HMDNPLSQQEKRILQLISLGKTNQEIADILYLSNGTVRNYISSILNKLSANNRVEAARIAEEHGW	-0.73
HMLAPLAEMRGDTLDRLEKAVLELFSSRDFHEVSLQDVARRANVSLQTIYKYFGSKEALVYTMLDTLLGR	-0.661
HMKAGAVFNEGDVLYPKIGGLKLMAAAGEGGKVVATLAKTDEMIYMGEEQSGFVKVESGSGSGWVKKILVA	0.366
HMDAINYEDFQLLIKQRGSFKVAFEDIMFSTKVAIEKKEDFYDFVTKLIDNGFNNMAYNYLEGFQD	-2.09
HMKKDDLKQINGIGTTIEKKLNEIDIYNFYQISNLSKEDIETISEKIKTFPGKIERDNWVGQAQELL	0.0191
HMKTRYPNVYQDEKGKFFYQIFIGTDTNGRKKLKKGRRDALGHPFSSAYQASKEAKRVQALYANVS	-1.23
HMANILKHKNKDGVITSYTIRVYHGYDEAGKRLRPYTMNYKPAPNMTARQIEKELNRQAVQFEEQIKNGYA	-0.699
HMGSLVVVPNLVGQNYDEVKLSTKYSDFEIVQKNTEYSEAPAGQIIKQDPEAGTKVKKHSTINVTVSK	-0.354
HMTVSIGSVIARERRLRGDTQQELAERLGVSKAAVSKWEVGQSIPDVTLLPRIAAYFSLTLDEL	-2.18
HMAQVSDDAELEKWADTAIDEHPKPVEEYRAGNAASINFLMGQVMKMSRGKANPGAVMQILKQKLD	0.109
HMKEQLITVYVSGAVARPGLYELPAGIRAQEAVEAAGGFTEAANHEKVNLAKKLKDGSQVNVPALK	-0.0032
HMNASVIADLFRQTGASVMIHGHTHRPDIHALEANGDAAFRAVLGAWHTEGSMIRVTQDDVTLIAFP	0.0376
HMGGEPVSARVPDTLHGARLDATAAALFPDFSRSRLAEWIKAGRLRRNDQPAKPRDKVAVDDHLLLIPEY	0.0696
HMISDISEIEAIIVEVLKVFPNQLQEYLDGKEKILSFFVGQVMQRTKGRANPSLVNEILKEKIKN	0.0377
HMTTAGTAIVQTGNSGKLNLREQAYANAGILGRYSNGTAVTVLQKGAAWSYVEVKGQKGYMMSKFLKFTS	-0.0681
HMVVANTAIKSELQNIVANENKQAPLSDQKIVDQLKQAGFDISRRTVVKYRDALGIPTSRNRKR	-0.131
HMSDIISEIESQVMFKLATYEITNATEKMIEALINSEINDRRTLGFPIPNEQGRIFLVRSIQNKLAV	-1.05
HMRQQQISAAIKTSVNGTVDYYVRRLPERDPRGDFLEVWDDLQKVIQAAHGIQVSHDELYEYFRRLK	-0.337

Sequence	soluble fraction (log2)
HMAPAPDEAFAEFVRSSAPSLTRTAWLLTGDRGHAQDLVQNAYAKTLQAWGRLDAEGALAYTRRAVIT	0.00536
HMTTKYVAVHESKDGYWTIASKPSSKEDAEAMLGGTPKNEVGKVVTLEEAKAHKKTLGEEYLYE	0.272
HMRMTKQRQAVLDELTRVTDFRSAQQIFEDLHSQGHRVGLATIYRSLQGLAEDGSVDTLRSSDGESLY	-0.0884
HMDLSPEQAELAAIRGELGIKIDDYALALNIPRDRLTSYLYGRANVPAEVLISARELRYASSA	0.00303
HMGSFDDAPDQLRQSILQLLAEGPLPPSAITERLNISREDATEALQQLLDEQRIFAVNGMLQLQPG	-0.0107
HMGDWITGTVTRIADNGWGTFQPENAHNTVSIPPKMVADNQLKEADSIKIIAEPSPDGTKTFIKAISRE	-0.00712
HMAEMLENQLKHAKSKQEANEYIAAAIGGVSDDDPDKEYLVAAYNEISKEFHHSSAYHRLPDT	-0.0511
HMIDVNLVQRGKTLHLRRRVPMRYSSVERREYVSISLKTDSEAEARRKAGAAWDQMIAAWEARLA	-0.35
HMGTIRAPMPGTILKINVVDGDSVTKGDVLLILESMKMENSITSPKTGSVTSVYVSEGDPVQHGETLIDL	-0.147
HMKNINTNIGKNLKRIRKLRGLTIDALATSSGVSKSMISEIERGIRNPSITIIWSLANALKTPLNYFLKE	-0.115
HMYPDNSGDIQQLAQNIFRQENVSVDRDGLALISSRLGSDHAATRSEIEKLALLAGPGGTLTFETISEVLG	-0.144
HMTIFGWQTDETGKWYRNADGTFFEAGWKEIDGAKYYFDENGYVKTGWLELDGKDYYFDEEGRYDSSKVR	-0.33
HMGVSAGQVRGLIRNLIAGEDKSKPLSDLALERELEKREIRISRRTVAKYRAELGIPNSDQRRYLP	-0.642
HMDEEDVLNELIRRLALTADDRLLLSLSYEDGLSSRKIATLLETSAATVQRRLAGLHHQLEQALRVMGLA	-0.454
HMYAPKIETIQVPQDKIREVIGTGGKVIREIVETTGAKIDIGDTGLIKVASSDGEAIRAALDWINSIVAE	0.117
HMFNLFPHLSVLRNITLAPQKVKGLNRSESNEIAMSLLERVGIPEQSDKFPSQLSGGQQQRVAIARALAM	-0.402
HMPEEGPSEDGNSFTAKFKLGSDVQGAMEQADAAAKAGLQDAGKGTGQITSRAQVGGYIYSTATA	0.0661
HMTETEIVIGGKYRHYKGGEYELVSIVKHSETLEELVIYKSLSTGEMWARPKSLFVGLVDGQPRYTL	-1.85
HMVDSTDLIPLLIKVSREKQGNKKLNWGEWLKIPENIYLKQINENIARKVFEDTNDLIDEAVNYINRKRRN	-0.602
HMKILNYQSLVGKKGITKSMLRPAGIVEIEGRRYDVVTRGEFIEPGKMITVDEVQGNRIIVQIERE	-0.165
HMDQVYYDLKSLIELLPADQMEVLKMRYFEELSFKKIAQKIDVSINTALGRMRYALINLRALSKKHHID	-0.189
HMTTMTTGQRIAAKRKEQGLSQENLGEQLGVSRQAIYKWESDASLPDIDKLIALSRLFGVSTDYLLLE	-0.41
HMVITEQTVTVKYLYEDDTEAAPEHSETHKTGETFEIESPKIDGFTPDYELITGTIANDDLVYIVRYKTTP	-0.282
